The target of assay [1] is IGF-II receptor (Long Evans rat liver) (rat). In words: saturation binding of [125I] IGF-II to pooled rat liver homogenate, filter plates; control diet, vehicle.
The target is the same in assay [2]. Put plainly: saturation binding of [125I] IGF-II to pooled rat liver homogenate, filter plates; control diet, PPAR-α agonist treated rats.
Assay [3] has the same target. Put plainly: saturation binding of [125I] IGF-II to pooled rat liver homogenate, filter plates; control diet, PPAR-δ agonist treated rats.
Assay [4] shares this target. Put plainly: saturation binding of [125I] IGF-II to pooled rat liver homogenate, filter plates; control diet, PPAR-γ agonist treated rats.
Assay [5] has the same target. Put plainly: saturation binding of [125I] IGF-II to pooled rat liver homogenate, filter plates; ethanol diet, PPAR-α agonist treated rats.
Assay [6] shares this target. In words: saturation binding of [125I] IGF-II to pooled rat liver homogenate, filter plates; ethanol diet, vehicle.
Assay [7] has the same target. In words: saturation binding of [125I] IGF-II to pooled rat liver homogenate, filter plates; ethanol diet, PPAR-δ agonist treated rats.
Assay [8] has the same target. Put plainly: saturation binding of [125I] IGF-II to pooled rat liver homogenate, filter plates; ethanol diet, PPAR-γ agonist treated rats.

Chain of Human recombinant [125I] IGF-II (P01344 25-91): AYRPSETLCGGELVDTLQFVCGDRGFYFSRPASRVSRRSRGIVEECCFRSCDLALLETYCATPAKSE

Regarding “Human recombinant [125I] IGF-II (from UniProt P01344 25-91) (ligand)”, the BMAX in assay [1] was found to be 40.1; in assay [2], 40.3; in assay [3], 29; in assay [4], 25.2; in assay [5] it was 28.9; in assay [6] it was 22.6. For the same substance, the figures for the BMAX in assay [7] and in assay [8] were 51.5 and 22.6, respectively.

These data come from patent US20100021386A1.
